Consider one molecule from US20180208666A1 (VENTANA MEDICAL SYSTEMS, published 2018).

Ends that are not written are not given here.

In assay [1] the target is T1, human OX40 (human, UniProt P43489 29-277).
T1 construct: no signal peptide limits are stated
T1 sequence: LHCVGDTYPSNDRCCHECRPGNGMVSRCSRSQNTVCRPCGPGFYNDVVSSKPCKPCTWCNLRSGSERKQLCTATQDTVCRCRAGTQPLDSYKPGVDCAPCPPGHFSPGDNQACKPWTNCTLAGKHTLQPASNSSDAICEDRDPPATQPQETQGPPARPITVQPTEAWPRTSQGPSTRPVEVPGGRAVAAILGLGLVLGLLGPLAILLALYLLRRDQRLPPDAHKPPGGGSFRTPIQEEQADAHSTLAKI
Nature of the assay: IHC on FFPE OX-40 transfected cells and FFPE tissues, ultraView DAB detection. The protocol:
IHC was performed using StdCC1 cell conditioning with ultraView Universal DAB Detection Kit (Ventana Medical Systems, Inc., Tucson, Ariz.). Primary antibody was incubated for 16 min at 37° C. on a BenchMark ULTRA automated slide stainer (Ventana Medical Systems, Inc., Tucson, Ariz.). Results are shown at Fig. (A) Mock transfected cells (negative control cells); (B) OX-40 transfected cells (positive control cells); (C) Reactive lymph node; and (D) Prostate adenocarcinoma.

For assay [2], the target named is T2, peptide fragment of amino acid residues 266-277 of OX40 (human, also: conjugated to KLH for immunisation).
T2 construct: It was conjugated to KLH for immunisation; also called OX40 antigen; 12-amino acid fragment
T2 peptide: EQADAHSTLAKI
Nature of the assay: ELISA screen of antibody-expressing cells on the OX40 antigen (peptide 266-277). An excerpt: Anti-OX40 rabbit monoclonal antibodies were generated as schematically depicted in FIG. 1. Briefly, the peptide fragment of amino acid residues 266-277 of was synthesized. The 12-amino acid fragment intended for immunization was conjugated to keyhole limpet hemocyanin (KLH), an extensively used carrier protein for stimulating a substantial immune response via antibody production. New Zealand White rabbits were immunized with KLH conjugated OX40 antigen emulsified with complete Freund's adjuvant followed by a series of OX40 antigen booster emulsified with incomplete Freund's adjuvant. The antibody-expressing cells were screened by enzyme-linked immunoabsorbant assay (ELISA) using the OX40 antigen. All ELISA positive clones were further screened by immunohistochemistry (IHC), and the clone producing the antibody with the highest specificity was selected. For recombinant production of anti-OX40 antibodies, cDNA coding for the heavy chain and light chain sequences of the antibodies were cloned, expressed by co-transfection, and screened for binding to OX40 by IHC. Anti-OX40 monoclonal antibody SP197 was produced using these methods and subsequently purified by Protein A affinity chromatography. The heavy and light chain variable region sequences of the SP197 antibody are as follows.

B1: Anti-OX40 monoclonal antibody SP197 (antibody, V domains shown)
VH: QSLEESGGRLVAPGGSLTLTCTVSGIDLSSDNIQWVRQAPGKGLEWIGAVDYNNKPFYANWAKGRFTISKTSSTTVDLKMTSLTTEDTATYFCAKNTFSPWGPGTLVTVSS
VL: DPAMTQTPSSTSAAVGGTVTINCQSSQSVYNANHLSWFQQKPGQPPKRLIYYISTPDSGVPPRFSGSGSGTQFTLTISGVQCDDAATYYCAALNSDEVFTFGGGTEVVVK
notes: also called rabbit anti-human OX-40 monoclonal antibody (SP197); anti-OX40 antibody SP197
Regarding B1, the binding result in assay [1] and in assay [2] was “binds” throughout.
